Assay results as given in patent publication US20200148768A1 (STCUBE, published 2020).
Substitutions are numbered along the chain they refer to.

B1: STC2602 (antibody, V domains shown)
VH: EVQLQQSGPELVKPGASVKISCKASGFSFIGYYIDWVKQSPGKSLEWIGYIYPSNGETSYHQKCKGKATLTVDKSSSTVNMQLNSLTSEDSAVYYCARYGNYDWFFDVWGAGTTVTVSS
VL: QIVLTQSPAIMSASPGEKVTITCSASSSVSYMHWFQQKPGTSPKFWIYSTSNLASGVPIRFSGSGSGTSYSLTISRMEAEDAATYYCQQRSSYPYTFGGGTKLEIK
B2: STC2739 (antibody, V domains shown)
VH: QVQLKQSGPGLVQPSQSLSITCTVSGFSLTTHGVNWVRQSPGKGLEWLGVIWSGGSTDYNAAFISRLSISKDNSKSQVFFKMNSLQANDTAIYYCARPYYYGAMDYWGQGTSVTVSS
VL: B1 VL with A9S, M32I, F45L, I59A, S92I, Y95L, G99A, I105L
B3: STC810 (antibody, V domains shown)
VH: EVQLQQSGPELVKPGASVKISCKASGYTFTHYNMDWVKQSHGKSLEWIGYIYPSNGGTGYNQKFKSRATLTVDKSSSTAYMELHSLTSEDSAVYYCARGAYHYGSSYAYWYFDVWGAGTTVTVSS
VL: DIQMTQTTSSLSASLGDRVTISCSASQDISNYLNWYQQKPDETVKLLISYTSSLHSGVPSRFSGSGSGTDYSLTISNLAPEDIATYYCQQSSKLPFTFGSGTELEIKR
notes: mouse monoclonal; kappa; also called mouse monoclonal anti-human BTN1A1 antibody STC810
B4: STC2778 (antibody, V domains shown)
VH: QIQLVQSGPELKKPGETVKISCKASGYSFTNYGMNWVKQAPGKGLKWMGWINIYTGETTYGDDFKGRFAFSLETSASTAYLQINNLRSEDTATYFCVRGGTMIMYWGQGTTLTVSS
VL: DIVLTQSPATLSVTPGDSVSLSCRASQSISNNLHWHQQKSHESPRLLIKYASQSMSGIPSRFSGSGSGTDFTLSINSVETEDFGMYFCQQSDSWPLTFGAGTKLELK
B5: STC1012 (antibody, V domains shown)
VH: EVMLVESGGALVKPGGSLKLSCAASGFTFSNYVMSWVRQTPEKRLEWVATISSGGSYTNYPDSVKGRFIISRDNARNTLYLQMSSLRSEDTAIYYCVREGDGFYVFDYWGLGTTLTVSS
VL: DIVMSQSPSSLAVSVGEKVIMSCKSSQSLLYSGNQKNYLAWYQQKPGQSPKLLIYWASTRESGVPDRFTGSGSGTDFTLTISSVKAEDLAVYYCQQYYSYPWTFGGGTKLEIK
notes: kappa; pHrodo-labeled in the internalization assay; also called mouse monoclonal anti-mouse BTN1A1 antibody STC1012
B6: STC1029 (antibody, V domains shown)
VH: EVQLQQSGPELVKPGASVKISCKASGYSFTGYFMNWVKQSHGKSLEWIGRINPYNGDTFYNQKFKDKATLTVDTSSSTAHMELRSLTSEESAVYYCARWTTVINFDYWGQGTTLTVSS
VL: SIVMTQTPKFLLVSAGDRVTITCKASQSVSYDVVWYQQKPGQSPKLLMYYVSNRYTGVPDRFTGSGYGTDFTFTISTVQAEDLAVYFCQQDYSSPPTFGGGTKLEIK
notes: kappa; also called mouse monoclonal anti-mouse BTN1A1 Antibody STC1029

Assays:
[1] = molecular target: T1, human BTN1A1-ECD-Fc (human, N-glycosylated (PNGase F sensitive)); test: Octet BLI, anti-mouse Fc capture
T1 construct: also called BTN1A1-Fc; hBTN1A1-Fc
Description: Using a biosensor coated with anti-mouse Fc capture antibody, KD was determined by Kon and Koff. Antibodies with higher affinity (nanomolar range) were selected. Epitope binning is also used to categorize the epitope binding characteristics of panels of antibodies against a single target. This epitope binning experiment was designed to determine whether two different antibodies bind to the same epitope. If two antibodies bind to the same epitope of the antigen, then the binding of the first antibody will preclude the binding if the second antibody. If each antibody in a tested pair binds to a completely independent epitope, then binding of the first antibody will have no effect on the binding of the second. Through repeated testing, the antibodies are grouped according to epitope binding specificity. This experiment was performed using the Octet Red96 System (Pall ForteBio) with Bio-Layer Interferometry (BLI) to detect and analyze the interaction of biological molecules. Antigen was bound to the disposable sensors, then additional binding of antibody to the antigen was measured by change in delay of the reflection of the light passing through the sensor. A longer delay is indicative of more mass bound to the sensor, and this value is used to determine the degree of protein-antibody interaction.

[2] = molecular target: T1, human BTN1A1-ECD-Fc; test: direct ELISA, coated BTN1A1-Fc, native Ag
Description: In order to exclude the possibility that the observed binding was due to human Fc binding, ELISA was performed using human BTN1A1-Fc and human IgG1 control. The antigens BTN1A1-Fc and human IgG1 were coated onto ELISA plate. Antibodies were added to each well and binding was for each antibody determined by standard direct ELISA against the antigens. Human IgG1 binding antibodies were excluded from the candidates.

[3] = molecular target: T1, human BTN1A1-ECD-Fc; test: direct ELISA, coated BTN1A1-Fc, denatured Ag
[4] = molecular target: T2, human BTN1A1 wild type, expressed on cells (human, UniProt Q13410 27-526, glycosylated at N55 and N215 (extracellular)); test: FACS, HEK293T overexpressing BTN1A1, FITC secondary
T2 construct: also as whole-cell lysate in western blots; also called BTN1A1 WT
T2 sequence: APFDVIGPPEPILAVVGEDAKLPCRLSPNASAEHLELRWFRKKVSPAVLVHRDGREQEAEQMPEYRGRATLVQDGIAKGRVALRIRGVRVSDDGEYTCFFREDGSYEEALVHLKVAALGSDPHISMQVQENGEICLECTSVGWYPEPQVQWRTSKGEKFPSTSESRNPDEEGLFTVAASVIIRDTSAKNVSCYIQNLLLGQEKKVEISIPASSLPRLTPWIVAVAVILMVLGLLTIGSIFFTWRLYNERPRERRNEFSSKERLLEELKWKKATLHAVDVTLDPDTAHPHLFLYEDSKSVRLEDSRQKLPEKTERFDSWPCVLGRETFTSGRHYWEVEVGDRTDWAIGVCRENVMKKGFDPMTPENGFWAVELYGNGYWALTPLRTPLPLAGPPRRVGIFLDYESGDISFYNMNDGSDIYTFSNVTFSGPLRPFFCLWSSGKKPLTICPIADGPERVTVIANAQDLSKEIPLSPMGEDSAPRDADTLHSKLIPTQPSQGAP
Description: To identify anti-BTN1A1-Fc MAbs that were specific for and which preferentially bound human BTN1A1-Fc antigen, different types of assays were performed. In a screening assay to detect preferential binding of MAbs to BTN1A1, antibody binding was determined based on the measurement of fluorescence intensity through FACS analysis (using cell membrane bound proteins). By way of example, the assay was performed using the HEK293T human embryonic kidney cell line. Illustratively, HEK293T cells overexpressing BTN1A1 were incubated with anti-BTN1A1 antibodies existing in hybridoma culture supernatant. After washing, secondary antibodies conjugated with FITC were added as detection agent. Fluorescence intensity (measured fluorescence intensity, MFI) was measured via FACS I flow cytometry analysis to assess the relative binding of the anti-BTN1A1 antibodies to membrane bound BTN1A1 WT on cells. […] Based on the binding analysis, sixty seven candidate MAb-producing hybridomas were selected, grown in ADCF medium, and their supernatant containing monoclonal antibody was concentrated and purified.

[5] = molecular target: T3, human BTN1A1-ECD-His6 (human, UniProt Q13410 27-242, N-glycosylated (PNGase F sensitive)); test: western blot after SDS-PAGE, native lanes (no DTT, no boiling) and reduced lanes (DTT, boiling)
T3 construct: also called BTN1A1-His; hBTN1A1-His
T3 sequence: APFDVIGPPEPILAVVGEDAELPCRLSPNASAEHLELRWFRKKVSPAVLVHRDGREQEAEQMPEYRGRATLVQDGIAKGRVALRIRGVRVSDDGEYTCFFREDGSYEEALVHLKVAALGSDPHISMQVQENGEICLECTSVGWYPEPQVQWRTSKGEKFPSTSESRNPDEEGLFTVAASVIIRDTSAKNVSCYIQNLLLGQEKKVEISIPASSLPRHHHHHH
From the text: FIG. 34—Dimer-specific binding of BTN1A1 antibody. FIG. 34 first panel from the left is an image of Coomassie blue stained SDS-PAGE gel, showing locations of monomer and dimer forms of the BTN1A1 protein in both native and reduced conditions along with a size standard. The second through fifth panels show western blots visualizing the monomer and dimer forms of the BTN1A1 protein in both native and reduced conditions using STC810, STC2602, STC2714 and STC 2781 antibody, respectively.
To determine the conformational specificity, Western blot analysis was performed using both dimer form of BTN1A1 (Fc fusion protein extracellular domain of BTN1A1) and monomer form of BTN1A1 (His-tagged protein of extracellular domain of BTN1A1). Proteins were treated with DTT (a reducing agent) and boiling or without reducing and denaturing by boiling. After running the proteins on SDS-PAGE, Western blot was performed by a standard protocol (FIG. 34). In a native condition (without a reducing agent and boiling), STC2714 recognized only Fc fusion protein, a dimerized form of BTN1A1 ECD, but not His-tagged protein, a monomer form of BTN1A1 ECD.

[6] = molecular target: T1, human BTN1A1-ECD-Fc; test: SPR (Biacore)
Description: (§1) An mIgG capture chip (BIAcore™) was coated with antibody with 600 response units (RU) and BTN1A1-ECD was injected into the microfluidic channel. KD values were obtained using fitting tools of the BIAevaluation software (BIAcore). FIGS. 22A-F provide sensograms showing real-time binding of dimeric BTN1A1-ECD-Fc (2-64 nM with 2-fold dilution; FIGS. 22A, C, and E) or of monomeric BTN1A1-ECD-His (2-64 nM with 2-fold dilution; FIGS. 22B, D, and F) to STC703, STC810, or STC820 immobilized on an mIgG capture CMS chip. Flow cells without any immobilized protein were used as the controls for non-specific binding and control cell signals were subtracted from test cell signals to produce the sensograms shown in FIGS. 22A-F.
(§2) The KD values for BTN1A1-ECD-Fc or BTN1A1-ECD-His binding to STC703, STC810, and STC820 as measured by Biacore assays are provided in Table 17 below.

[7] = molecular target: T2, human BTN1A1 wild type, expressed on …; test: FACS, 293T BTN1A1 WT against 2NQ
Description: The glyco-specificity of monoclonal anti-BTN1A1 antibodies was characterized by dot blot analysis. Each anti-BTN1A1 mAb (0.5 μg/well loaded) was tested for binding to glycosylated BTN1A1 (PNGaseF “−”) or deglycosylated BTN1A1 (PNGaseF “+”). Non-specific antibody controls (“IgG,” 0.25 μg/well loaded) was also included in the assay. As shown in FIGS. 19A-19B, both glycosylated BTN1A1 protein and non-glycosylated BTN1A1 (BTN1A1 protein treated with PNGase F) were coated on the solid phase and tested for mAb and antigen binding affinity. […] The glyco-specificity of monoclonal anti-BTN1A1 antibodies was also characterized by FACS analysis. […] After further washing, fluorescence intensity (MFI) was measured to assess relative binding of antibodies to membrane-bound glycosylated or unglycosylated BTN1A1. […] See, e.g., FIGS. 21A-C and Table 16.

[8] = molecular target: T1, human BTN1A1-ECD-Fc; test: SPR (Biacore), antibody on mIgG capture chip, BTN1A1-ECD-Fc 2-64 nM
Description: as §1, §2

[9] = molecular target: T4, mouse BTN1A1-ECD-Fc (mouse; human, UniProt Q62556 27-247); test: SPR (Biacore X-100), antibody captured on chip, mouse BTN1A1-ECD-Fc 2-64 nM
T4 construct: also called human IgG1-Fc-tagged mouse BTN1A1-ECD (dimer); mBTN1A1-Fc
T4 chain: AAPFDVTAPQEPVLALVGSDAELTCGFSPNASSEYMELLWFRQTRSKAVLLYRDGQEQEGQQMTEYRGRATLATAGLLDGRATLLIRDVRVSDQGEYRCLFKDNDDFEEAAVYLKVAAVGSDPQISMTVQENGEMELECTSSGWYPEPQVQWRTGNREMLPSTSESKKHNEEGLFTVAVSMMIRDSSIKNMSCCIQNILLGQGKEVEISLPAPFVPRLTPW
Description: The binding affinity between BTN1A1 and monoclonal anti-BTN1A1 antibodies STC1011, STC1012, and STC1029 was measured by Surface Plasmon Resonance (BIAcore™). Sensorgrams and saturation curves of antibody titrations of with human IgG1-Fc-tagged mouse BTN1A1-ECD (dimer) were recorded.
An Protein capture chip (BIAcore™) was coated with STC1011, STC1012, STC1029, or a control IgG1 antibody. No interaction between the IgG1 control and mouse BTN1A1-His was observed. Mouse BTN1A1-ECD-Fc was injected into the microfluidic channel on a Biacore™ X-100 instrument. KD values were obtained using fitting tools of the BIAevaluation software (BIAcore). FIGS. 29A-C provide sensograms showing real-time binding of dimeric BTN1A1-ECD-Fc (2-64 nM with 2-fold dilution) to immobilized STC1011, STC1012, and STC1029.

| Binder | Kd [1] [nM] | ELISA (Native Ag) [2] | ELISA (Denatured Ag) [3] | FACS (MFI) [4] | Kd [9] [nM] | koff [9] [s⁻¹] | kon [9] [M⁻¹ s⁻¹] | also measured |
| --- | --- | --- | --- | --- | --- | --- | --- | --- |
| B1 | 2.35 | 1.39 | 0.128 | 69.5 |  |  |  | binding result [5]: no binding |
| B2 | 0.0885 | 0.956 | 0.418 | 841 |  |  |  |  |
| B3 |  |  |  |  |  |  |  | fold higher affinity than to monomeric BTN1A1-ECD-His [6]: > 100 fold; fold MFI on glycosylated over unglycosylated BTN1A1 [7]: ≥ 2 fold; Kd [8]: 0.92 nM |
| B4 | 0.436 | 1.8 | 1.44 | 2340 |  |  |  |  |
| B5 |  |  |  |  | 4.1 | 0.000599 | 146000 |  |
| B6 |  |  |  |  | 1.69 | 0.000427 | 251000 |  |
